Experimental findings from US6767887 are described below.

This experiment concerns the target human neutral endopeptidase 24.11 (human) (UniProt P08473). In words: cell-based or functional assay.

On to “GLP-1-(7-36)-NH2 (from UniProt P01275 98-127) (peptide)”, for which the Degradation rate (mM/100 ng/ml NEP24.11/min) was 0.0586.
